Experimental findings from patent CN114409797A (HEFEN TIANKPORT IMMUNOLOGICAL DRUG CO LTD, dated 2022) are described below.

This test has as its target PD-L1蛋白 (expressed on CHO-K1-PD-L1 cells) (Homo sapiens (Human), UniProt Q9NZQ7 19-290). Description: flow cytometry on CHO-K1-PD-L1 cells, Alexa-647 anti-human Fc secondary antibody. On the technique in general: Flow cytometry measures light scatter and fluorescence of single cells or particles in a stream.

Sequence of PD-L1蛋白 (expressed on CHO-K1-PD-L1 cells) (Q9NZQ7 19-290 limits assumed): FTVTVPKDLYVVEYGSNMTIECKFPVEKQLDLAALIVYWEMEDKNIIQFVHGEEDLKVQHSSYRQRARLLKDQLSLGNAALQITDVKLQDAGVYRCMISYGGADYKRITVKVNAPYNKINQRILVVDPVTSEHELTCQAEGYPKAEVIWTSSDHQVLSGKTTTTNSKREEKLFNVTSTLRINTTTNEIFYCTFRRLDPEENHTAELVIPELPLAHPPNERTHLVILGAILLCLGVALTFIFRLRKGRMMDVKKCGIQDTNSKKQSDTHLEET

B1: CD3×PD1mut双特异抗体 (bispecific antibody)
chain 1: EVQLLESGGGLVQPGGSLKLSCAASGFTFNTYAMNWVRQAPGKGLEWVARIRSKYNNYATYYADSVKDRFTISRDDSKNTAYLQMNNLKTEDTAVYYCVRHGNFGNSYVSWFAYWGQGTLVTVSSGGGGSGGGGSGGGGSELVVTQEPSLTVSPGGTVTLTCRSSTGAVTTSNYANWVQQKPGQAPRGLIGGTNKRAPGTPARFSGSLLGGKAALTLSGVQPEDEAEYYCALWYSNLWVFGGGTKLTVLGGGGSPKSCDKTHTCPPCPAPELLGGPSVFLFPPKPKDTLMISRTPEVTCVVVAVSHEDPEVKFNWYVDGVEVHNAKTKPREEQYASTYRVVSVLTVLHQDWLNGKEYKCKVSNKALPAPIEKTISKAKGQPREPQVYTLPPSREEMTKNQVSLWCLVKGFYPSDIAVEWESNGQPENNYKTTPPVLDSDGSFFLYSKLTVDKSRWQQGNVFSCSVMHEALHNHYTQKSLSLSPGK
chain 2: not shown
notes: Two-chain knob-into-hole heterodimer with human IgG1 Fc
As for B1, the binding result is “binds”.

B2: CD3×PD1双特异抗体 (bispecific antibody)
chain 1: EVQLLESGGGLVQPGGSLKLSCAASGFTFNTYAMNWVRQAPGKGLEWVARIRSKYNNYATYYADSVKDRFTISRDDSKNTAYLQMNNLKTEDTAVYYCVRHGNFGNSYVSWFAYWGQGTLVTVSSGGGGSGGGGSGGGGSELVVTQEPSLTVSPGGTVTLTCRSSTGAVTTSNYANWVQQKPGQAPRGLIGGTNKRAPGTPARFSGSLLGGKAALTLSGVQPEDEAEYYCALWYSNLWVFGGGTKLTVLGGGGSPKSCDKTHTCPPCPAPELLGGPSVFLFPPKPKDTLMISRTPEVTCVVVAVSHEDPEVKFNWYVDGVEVHNAKTKPREEQYASTYRVVSVLTVLHQDWLNGKEYKCKVSNKALPAPIEKTISKAKGQPREPQVYTLPPSREEMTKNQVSLWCLVKGFYPSDIAVEWESNGQPENNYKTTPPVLDSDGSFFLYSKLTVDKSRWQQGNVFSCSVMHEALHNHYTQKSLSLSPGK
chain 2: not shown
notes: as for B1
As to B2, the binding result is recorded as “binds”.
